Like-named read-outs stand apart in the source and are kept apart here.
Assays:
[1] = molecular target: Paclitaxel-stabilized microtubules (bovine brain αβ-tubulin) (bovine) (UniProt Q6B856)
[2] = molecular target: Paclitaxel-stabilized microtubules (bovine brain αβ-tubulin) (bovine) (UniProt Q6B856); assay: co-sedimentation; 0.5 μM Cin8-His, 0–2 μM microtubules, 1 mM ATP plus ATP regeneration system, low ionic strength (21 mM); fraction bound by NADH-coupled assay; apparent constants
[3] = molecular target: Paclitaxel-stabilized microtubules (bovine brain αβ-tubulin) (bovine) (UniProt Q6B856); assay: co-sedimentation; 0.5 μM Cin8-His, 0–2 μM microtubules, 1 mM ATP plus ATP regeneration system, high ionic strength (88 mM); fraction bound by NADH-coupled assay; apparent constants
[4] = molecular target: Paclitaxel-stabilized microtubules (bovine brain αβ-tubulin) (bovine) (UniProt Q6B856); assay: co-sedimentation; 0.5 μM Cin8-His, 0–2 μM microtubules, 1 mM ATP plus ATP regeneration system, low ionic strength (21 mM); fraction bound by NADH-coupled assay; apparent constants; remark: listed apart in the source
[5] = molecular target: Paclitaxel-stabilized microtubules (bovine brain αβ-tubulin) (bovine) (UniProt Q6B856); assay: co-sedimentation; 0.5 μM Cin8-His, 0–2 μM microtubules, 1 mM ATP plus ATP regeneration system, high ionic strength (88 mM); fraction bound by NADH-coupled assay; apparent constants; remark: listed apart in the source
[6] = molecular target: Paclitaxel-stabilized microtubules (bovine brain αβ-tubulin) (bovine) (UniProt Q6B856); assay: co-sedimentation; Cin8-His with microtubules, no added nucleotide, low ionic strength (21 mM), 298 K; Cin8 left in the supernatant measured by the NADH coupled ATPase assay; apparent constants
[7] = molecular target: Paclitaxel-stabilized microtubules (bovine brain αβ-tubulin) (bovine) (UniProt Q6B856); assay: co-sedimentation; Cin8-His with microtubules, no added nucleotide, high ionic strength (88 mM), 298 K; Cin8 left in the supernatant measured by the NADH coupled ATPase assay; apparent constants
[8] = molecular target: Pre-formed microtubule·Eg5 complex (bovine | human) (UniProt Q6B856); assay: stopped-flow light scattering; 0.5–5 μM Cin8-His rapidly mixed with a pre-formed microtubule·Eg5 complex (0.5 μM Eg5, 0.5 μM microtubules), low ionic strength, 298 K; amplitudes fit to Equation 6, observed rates to Equation 8
[9] = molecular target: Pre-formed microtubule·Eg5 complex (bovine | human) (UniProt Q6B856); assay: as above; remark: listed apart in the source
[10] = molecular target: Paclitaxel-stabilized microtubules (bovine brain αβ-tubulin) (bovine) (UniProt Q6B856); assay: co-sedimentation; 4 μM Cin8-trx, 1 μM microtubules, 20 μM paclitaxel; ATPase buffer, without glycerol, plus DTT, PIPES pH 6.9, sodium phosphate pH 7.2, 10 mM NaCl or 10 mM potassium acetate
[11] = molecular target: Paclitaxel-stabilized microtubules (bovine brain αβ-tubulin) (bovine) (UniProt Q6B856); assay: co-sedimentation; competition: 0–14 μM Cin8-trx added to 2 μM Eg5 and 2 μM microtubules, 60 min at 298 K before centrifugation, low ionic strength; fraction Eg5 bound fit to Equation 5 with Kd,Eg5 fixed; apparent
[12] = molecular target: Paclitaxel-stabilized microtubules (bovine brain αβ-tubulin) (bovine) (UniProt Q6B856); assay: co-sedimentation; competition: 0–14 μM Cin8-trx added to 2 μM Eg5 and 2 μM microtubules, 60 min at 298 K before centrifugation, high ionic strength; fraction Eg5 bound fit to Equation 5 with Kd,Eg5 fixed; apparent
[13] = molecular target: Paclitaxel-stabilized microtubules (bovine brain αβ-tubulin) (bovine) (UniProt Q6B856); assay: co-sedimentation; 2 μM kinesin, 0–4 μM paclitaxel-stabilised microtubules, no added nucleotide, high ionic strength (88 mM; ATPase buffer with 75 mM KCl), 298 K, 100,000 × g 30 min; supernatant and pellet by SDS-PAGE; apparent constants, fit to Equation 3
[14] = molecular target: Paclitaxel-stabilized microtubules (bovine brain αβ-tubulin) (bovine) (UniProt Q6B856); assay: co-sedimentation; 2 μM kinesin, 0–4 μM paclitaxel-stabilised microtubules, no added nucleotide, low ionic strength (21 mM; ATPase buffer with 7.5 mM KCl), 298 K, 100,000 × g 30 min; supernatant and pellet by SDS-PAGE; apparent constants, fit to Equation 3
[15] = molecular target: Paclitaxel-stabilized microtubules (bovine brain αβ-tubulin) (bovine) (UniProt Q6B856); assay: co-sedimentation; 2 μM kinesin, 0–4 μM paclitaxel-stabilised microtubules, no added nucleotide, high ionic strength (88 mM; ATPase buffer with 75 mM KCl), 298 K, 100,000 × g 30 min; supernatant and pellet by SDS-PAGE; apparent constants, fit to Equation 3; remark: listed apart in the source
[16] = molecular target: Paclitaxel-stabilized microtubules (bovine brain αβ-tubulin) (bovine) (UniProt Q6B856); assay: co-sedimentation; 2 μM kinesin, 0–4 μM paclitaxel-stabilised microtubules, no added nucleotide, low ionic strength (21 mM; ATPase buffer with 7.5 mM KCl), 298 K, 100,000 × g 30 min; supernatant and pellet by SDS-PAGE; apparent constants, fit to Equation 3; remark: listed apart in the source
[17] = substrate: Nc1ncnc2c1ncn2[C@@H]1O[C@H](COP(=O)(O)OP(=O)(O)OP(=O)(O)O)[C@@H](O)[C@H]1O; assay: NADH-coupled steady-state ATPase assay; type: biochemical, Saccharomyces cerevisiae; conditions: low ionic strength (21 mM), 20 mM HEPES pH 7.2, 2 mM MgCl2, 7.5 mM KCl, 20% glycerol, 298 K, 25.0 °C
Text: NADH-coupled steady-state ATPase assay on Cin8-His (Cin8 motor domain)

[18] = microtubule-stimulated (2 μM bovine brain microtubules, paclitaxel-stabilized)

B1: Cin8-His (S. cerevisiae kinesin-5 Cin8 motor domain, residues 70–535, with N-terminal His6 and TEV cleavage tags) (domain or fragment)
chain: ISINTTGDTGITAQMNAKRYTVDKVFGPGASQDLIFDEVAGPLFQDFIKGYNCTVLVYGMTSTGKTYTMTGDEKLYNGELSDAAGIIPRVLLKLFDTLELQQNDYVVKCSFIELYNEELKDLLDSNSNGSSNTGFDGQFMKKLRIFDSSTANNTTSNSASSSRSNSRNSSPRSLNDLTPKAALLRKRLRTKSLPNTIKQQYQQQQAVNSRNNSSSNSGSTTNNASSNTNTNNGQRSSMAPNDQTNGIYIQNLQEFHITNAMEGLNLLQKGLKHRQVASTKMNDFSSRSHTIFTITLYKKHQDELFRISKMNLVDLAGSENINRSGALNQRAKEAGSINQSLLTLGRVINALVDKSGHIPFRESKLTRLLQDSLGGNTKTALIATISPAKVTSEETCSTLEYASKAKNIKNKPQLGSFIMKDILVKNITMELAKIKSDLLSTKSKEGIYMSQDHYKNLNSDLESYKN
In the case of B1, the K0.5,MT of the microtubule-stimulated steady-state ATPase (NADH coupled assay), 21 mM ionic strength [1] is reported as 0.08 µM, the K0.5,MT of the microtubule-stimulated steady-state ATPase (NADH coupled assay), 88 mM ionic strength [1] is reported as 1.8 µM and the Kd [2] is reported as 140 nM. It also gave a stoichiometry N [2] of 3.7, a Kd [3] of 960 nM and a stoichiometry N [3] of 6.1. It also gave a Kd [4] of 110 nM, a Kd [5] of 1600 nM and a Kd [6] of 260 nM. The stoichiometry N [6] was 3.1, the Kd [7] was 180 nM and the stoichiometry N [7] was 3. It also gave a kon [8] of 1.1e+06 M⁻¹ s⁻¹, a K0.5 (Cin8 concentration at half-maximal light-scattering amplitude) [9] of 0.27 µM and a koff [9] of 3.1 s⁻¹. The kon [9] was 1e+06 M⁻¹ s⁻¹.

B2: Cin8-trx (Cin8 motor domain, residues 70–535, fused to N-terminal thioredoxin (TrxA), His6, TEV cleavage and Arg9 tags) (domain or fragment)
chain: ISINTTGDTGITAQMNAKRYTVDKVFGPGASQDLIFDEVAGPLFQDFIKGYNCTVLVYGMTSTGKTYTMTGDEKLYNGELSDAAGIIPRVLLKLFDTLELQQNDYVVKCSFIELYNEELKDLLDSNSNGSSNTGFDGQFMKKLRIFDSSTANNTTSNSASSSRSNSRNSSPRSLNDLTPKAALLRKRLRTKSLPNTIKQQYQQQQAVNSRNNSSSNSGSTTNNASSNTNTNNGQRSSMAPNDQTNGIYIQNLQEFHITNAMEGLNLLQKGLKHRQVASTKMNDFSSRSHTIFTITLYKKHQDELFRISKMNLVDLAGSENINRSGALNQRAKEAGSINQSLLTLGRVINALVDKSGHIPFRESKLTRLLQDSLGGNTKTALIATISPAKVTSEETCSTLEYASKAKNIKNKPQLGSFIMKDILVKNITMELAKIKSDLLSTKSKEGIYMSQDHYKNLNSDLESYKN
For B2, the stoichiometry N [10] was 4, the Kd [11] was 2 nM and the Kd [12] was 590 nM. The Kd [13] was 130 nM, the stoichiometry N [13] was 4 and the Kd [14] was 1 nM. The stoichiometry N [14] was 5.1, the stoichiometry N [15] was 3 to 5 and the Kd [16] was 13 nM.

B3: Cin8-His (Cin8 motor domain) (Saccharomyces cerevisiae S288C) (protein)
chain: NEELNITVAVRCRGRNEREISMKSSVVVNVPDITGSKEISINTTGDTGITAQMNAKRYTVDKVFGPGASQDLIFDEVAGPLFQDFIKGYNCTVLVYGMTSTGKTYTMTGDEKLYNGELSDAAGIIPRVLLKLFDTLELQQNDYVVKCSFIELYNEELKDLLDSNSNGSSNTGFDGQFMKKLRIFDSSTANNTTSNSASSSRSNSRNSSPRSLNDLTPKAALLRKRLRTKSLPNTIKQQYQQQQAVNSRNNSSSNSGSTTNNASSNTNTNNGQRSSMAPNDQTNGIYIQNLQEFHITNAMEGLNLLQKGLKHRQVASTKMNDFSSRSHTIFTITLYKKHQDELFRISKMNLVDLAGSENINRSGALNQRAKEAGSINQSLLTLGRVINALVDKSGHIPFRESKLTRLLQDSLGGNTKTALIATISPAKVTSEETCSTLEYASKAKNIKNKPQLGSFIMKDILVKNIT
notes: motor domain residues 70-535; N-terminal His6 and TEV site tags kept; expressed in E. coli B834(DE3); monomeric in solution
Work on B3 yielded a Km [17, 18] of 29 ± 16 µM and a kcat [17, 18] of 0.38 ± 0.04 s^−1 site^−1.

B4: Cin8-His (Cin8 motor domain) (Saccharomyces cerevisiae S288C; DEL254-353/DEL32-69/INS253NNNNNSS) (protein)
chain: ISINTTGDTGITAQMNAKRYTVDKVFGPGASQDLIFDEVAGPLFQDFIKGYNCTVLVYGMTSTGKTYTMTGDEKLYNGELSDAAGIIPRVLLKLFDTLELQQNDYVVKCSFIELYNEELKDLLDSNSNGSSNTGFDGQFMKKLRIFDSSTANNTTSNSASSSRSNSRNSSPRSLNDLTPKAALLNNNNNSSSSRSHTIFTITLYKKHQDELFRISKMNLVDLAGSENINRSGALNQRAKEAGSINQSLLTLGRVINALVDKSGHIPFRESKLTRLLQDSLGGNTKTALIATISPAKVTSEETCSTLEYASKAKNIKNKPQLGSFIMKDILVKNITMELAKIKSDLLSTKSKEGIYMSQDHYKNLNSDLESYKN
notes: as for B3
B4 showed a Km ([17]; microtubule-stimulated) of 45 ± 4 µM and a kcat ([17]; microtubule-stimulated) of 0.36 ± 0.22 s^−1 site^−1.
